From the supplement of paper PMC6755084

B1: minF1; a variant is named by its letters at N, in order (parent)
chain: GAGACCGCAACTGAAAAGTTGTTNNNNAANNNNNGGNTNAATTTCTGCACGTAGAAGCAAAAGGC

Variants of: B1
Assay: fraction ligated after 30 min (ligated reads / total reads); higher = more ligase activity
Settings: with F1*subA RNA substrate (template-directed ligation), 42 °C
How it was run: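 Ligated and unligated RNAs from a pool of minimized ligase ribozyme variants were separated on gels, reverse transcribed with barcoded primers and sequenced on a MiSeq. Core bases needed quality ≥30 to pass the filter. Each variant's fraction ligated was then taken as ligated reads over total reads.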

| Variant | fraction ligated |
| --- | --- |
| GAGACCGCAACTGAAAAGTTGTTATCAGAATGGTGGGTTGATTTCTGCACGTAGAAGCAAAAGGC [ATCAATGGTGT A28G A40G] | 0.00763 |
| GAGACCGCAACTGAAAAGTTGTTATCAAAAGATGGGTTGAATTTCTGCACGTAGAAGCAAAAGGC [ATCAAGATGTG] | 0.00503 |
| GAGACCGCAACTGAAAAGTTGTTATCAGAATGGATGGTTAATTTCTGCACGTAGAAGCAAAAGGC [ATCAATGGAGT A28G G35T] | 0.0192 |
| GAGACCGCAACTGAAAAGTTGTTATCAGAAATGATGGTTAATTTCTGCACGTAGAAGCAAAAGGC [ATCAAATGAGT A28G G35T] | 0.00393 |
| GAGACCGCAACTGAAAAGTTGTTATCAGAATATGGGTTGAATTTCTGCACGTAGAAGCAAAAGGC [ATCAATATGTG A28G] | 0.00244 |
| GAGACCGCAACTGAAAAGTTGTTATCAGAAATGGGGGTTAATTTCTGCACGTAGAAGCAAAAGGC [ATCAAATGGGT A28G] | 0.00311 |
| GAGACCGCAACTGAAAAGTTGTTATCAAAATGTGGGTTGAATTTCTGCACGTAGAAGCAAAAGGC [ATCAATGTGTG] | 0.0057 |
| GAGACCGCAACTGAAAAGTTGTTATCAAAATGGAGGTTGAATTTCTGCACGTAGAAGCAAAAGGC [ATCAATGGATG] | 0.00435 |
| GAGACCGCAACTGAAAAGTTGTTATCAATGGATGGGTTGAATTTCTGCACGTAGAAGCAAAAGGC [ATCAGGATGTG A29T] | 0.0416 |
| GAGACCGCAACTGAAAAGTTGTTATCAGAATGATGGTTGAATTTCTGCACGTAGAAGCAAAAGGC [ATCAATGATTG A28G] | 0.00338 |
| GAGACCGCAACTGAAAAGTTGTTATCAGAAATAGGGTTGAATTTCTGCACGTAGAAGCAAAAGGC [ATCAAATAGTG A28G] | 0.00491 |
| GAGACCGCAACTGAAAAGTTGTTATCAAATGGATGGTTGAATTTCTGCACGTAGAAGCAAAAGGC [ATCATGGATTG] | 0.00725 |
| GAGACCGCAACTGAAAAGTTGTTATCAGAATGGAGGGTTGATTTCTGCACGTAGAAGCAAAAGGC [ATCAATGGAGT A28G A40G] | 0.00701 |
| GAGACCGCAACTGAAAAGTTGTTATCAAAAGGAGGGTTGAATTTCTGCACGTAGAAGCAAAAGGC [ATCAAGGAGTG] | 0.00266 |
| GAGACCGCAACTGAAAAGTTGTTATCAGAAATGTGGGTTAATTTCTGCACGTAGAAGCAAAAGGC [ATCAAATGTGT A28G] | 0.00203 |
| GAGACCGCAACTGAAAAGTTGTTATCAAAATGGATGGGTTGTTTCTGCACGTAGAAGCAAAAGGC [ATCAATGGAGT G35T T38G A40T A41G] | 0.00079 |
| GAGACCGCAACTGAAAAGTTGTTATCAAAATGGATGGTTAATTTCTGCACGTAGAAGCAAAAGGC [ATCAATGGAGT G35T] | 0.0137 |
| GAGACCGCAACTGAAAAGTTGTTATCAAAATGGTGGTTGAATTTCTGCACGTAGAAGCAAAAGGC [ATCAATGGTTG] | 0.00416 |
| GAGACCGCAACTGAAAAGTTGTTATCAAAAGGTGGGTTGAATTTCTGCACGTAGAAGCAAAAGGC [ATCAAGGTGTG] | 0.00569 |
| GAGACCGCAACTGAAAAGTTGTTATCAGAATGGATGGTTGATTTCTGCACGTAGAAGCAAAAGGC [ATCAATGGAGT A28G G35T A40G] | 0.0474 |
| GAGACCGCAACTGAAAAGTTGTTATCAGAATGGATGGGTTATTTCTGCACGTAGAAGCAAAAGGC [ATCAATGGAGT A28G G35T T38G A40T] | 0.00109 |

| Variant | fraction ligated |
| --- | --- |
| GAGACCGCAACTGAAAAGTTGTTATCAGAAATGGTGGGTTATTTCTGCACGTAGAAGCAAAAGGC [ATCAAATGGGT A28G G35T T38G A40T] | 0.00125 |
| GAGACCGCAACTGAAAAGTTGTTATCAAAATGATGGGTTAATTTCTGCACGTAGAAGCAAAAGGC [ATCAATGATGT] | 0.00391 |
| GAGACCGCAACTGAAAAGTTGTTATCAGAATGGTGGTTGAATTTCTGCACGTAGAAGCAAAAGGC [ATCAATGGTTG A28G] | 0.00263 |
| GAGACCGCAACTGAAAAGTTGTTATCAAATGGATGGGTTGATTTCTGCACGTAGAAGCAAAAGGC [ATCATGGATGT A40G] | 0.0479 |
| GAGACCGCAACTGAAAAGTTGTTATCAGATGGATGGGTTAATTTCTGCACGTAGAAGCAAAAGGC [ATCATGGATGT A28G] | 0.00453 |
| GAGACCGCAACTGAAAAGTTGTTATCAAAATATGGGTTGAATTTCTGCACGTAGAAGCAAAAGGC [ATCAATATGTG] | 0.00461 |
| GAGACCGCAACTGAAAAGTTGTTATCAAAATGGTGGGTTAATTTCTGCACGTAGAAGCAAAAGGC [ATCAATGGTGT] | 0.00377 |
| GAGACCGCAACTGAAAAGTTGTTATCAGAAATGTGGGTTGATTTCTGCACGTAGAAGCAAAAGGC [ATCAAATGTGT A28G A40G] | 0.00666 |
| GAGACCGCAACTGAAAAGTTGTTATCAGAAGGAGGGTTGAATTTCTGCACGTAGAAGCAAAAGGC [ATCAAGGAGTG A28G] | 0.00604 |
| GAGACCGCAACTGAAAAGTTGTTATCAGAAATGAGGGTTGATTTCTGCACGTAGAAGCAAAAGGC [ATCAAATGAGT A28G A40G] | 0.00391 |
| GAGACCGCAACTGAAAAGTTGTTATCAGAAATATGGGTTAATTTCTGCACGTAGAAGCAAAAGGC [ATCAAATATGT A28G] | 0.00373 |
| GAGACCGCAACTGAAAAGTTGTTATCAGAAGATGGGTTGAATTTCTGCACGTAGAAGCAAAAGGC [ATCAAGATGTG A28G] | 0.00558 |
| GAGACCGCAACTGAAAAGTTGTTATCAGAATGGATGGGTTGTTTCTGCACGTAGAAGCAAAAGGC [ATCAATGGAGT A28G G35T T38G A40T A41G] | 0.00208 |
| GAGACCGCAACTGAAAAGTTGTTATCAGAAATTGGGTTGAATTTCTGCACGTAGAAGCAAAAGGC [ATCAAATTGTG A28G] | 0.00273 |
| GAGACCGCAACTGAAAAGTTGTTATCAGAATGTGGGTTGAATTTCTGCACGTAGAAGCAAAAGGC [ATCAATGTGTG A28G] | 0.00293 |
| GAGACCGCAACTGAAAAGTTGTTATCAGAAATGAGGTTGAATTTCTGCACGTAGAAGCAAAAGGC [ATCAAATGATG A28G] | 0.00241 |
| GAGACCGCAACTGAAAAGTTGTTATCAAAAGGATGGGTTGATTTCTGCACGTAGAAGCAAAAGGC [ATCAAGGATGT A40G] | 0.0124 |
| GAGACCGCAACTGAAAAGTTGTTATCAAAATGGAGGGTTGATTTCTGCACGTAGAAGCAAAAGGC [ATCAATGGAGT A40G] | 0.00544 |
| GAGACCGCAACTGAAAAGTTGTTATCAGATGGATGGTTGAATTTCTGCACGTAGAAGCAAAAGGC [ATCATGGATTG A28G] | 0.00743 |
| GAGACCGCAACTGAAAAGTTGTTATCAGAATGGGGGTTGAATTTCTGCACGTAGAAGCAAAAGGC [ATCAATGGGTG A28G] | 0.00605 |
